Assay results as given in a protein production outcome set (Wang et al. 2014).

Assay: label from the status in PepcDB records

MDLHSLCVDSHALRRDGMRFLHTADWQLGMTRHFLAGDAQPRYSAARRDAVAGLKALAADVGAEFVVVAGDVFEHNQLAPQIVGQSLEAMRVIGLPVYLLPGNHDPLDASSVYTSTLFRAERPDNVVVLDRAGVHEVRPGVQIVAAPWRSKAPTTDPVAEVLAGLPTDAAIRLLVAHGGVDALDPDHDKPSLIRLAALDDALTRQAIHYVALGDKHSLTQVGSSGRVWYSGAPEVTNFDDVEPDPGHVLVVDIDESDPRHPVTVDARRIGRWRFVTLHHQVDTSRDIADLDLNLDLMTDKDRTVVRLALTGSLTVTDRAALDTCLDKYARLFAWLGLWERHTDLAVIPVDAEFTDLGIGGFAAAAVDELVATARGGDDESAVDAQAALALLLRLADRGAALEHHHHHH
protein production: failed

MSNEFEPYNKEIKKIEFTTWKYQASKDAEHSPSDEEELINELEVVKQEAFQKGYADGFQQAQEEINAIKAELSKWLDLIQKPVQILDEQLTQEIIQTIIWLSQHCVAVELSVNPDKLNDLLNKIKGELPSLTGKKSISMHPDDVRWIKEVFSESNIPGLHELLVADPALNRGDFYLQGEHSELDGRIQTRFTTLFNEYINKENIIP
protein production: failed

MNIGLLEALDQLEEEKGISKEEVIPILEKALVSAYRKNFGNSKNVEVVIDRNTGNIKVYQLLEVVEEVEDPATQISLEEAKKIDPLAEVGSIVKKELNVKNFGRIAAQTAKQVLIQRIRELEKEKQFEKYSELKGTVTTAEVIRVMGEWADIRIGKLETRLPKKEWIPGEEIKAGDLVKVYIIDVVKTTKGPKILVSRRVPEFVIGLMKLEIPEVENGIVEIKAIAREPGVRTKVAVASNDPNVDPIGACIGEGGSRIAAILKELKGEKLDVLKWSDDPKQLIANALAPATVIEVEILDKENKAARVLVPPTQLSLAIGKGGQNARLAAKLTGWKIDIKPIMNL
protein production: not failed

MSMLANFDFASFFAVAAAIVIGLYVVLDGFDLGVGILFPFAPRVSDRDAMMATLEPFWDGNETWLVLGGMVLLGAFPLAFAILLPAFYVPLCLMLFGLVIRGVAFEFRSQGGRFQIVWSATFAAGSFIAAFCQGAVLGAFVGRSITVSDGAFAGGPFDWLGLFSIATGLGVVAAYGLLGACWLVWKTSGSTQNFGRELMLPTLLCAGAAIVLISVWTPFAKPQIAERWFAWPDALLLAPLPIIAVLAGIGILLTRWSEREWAPLALSLLLFVTSLAGLGASVWPEAIPGVMTIWQASSMHRTQVIVAGAVVIIGPIILAYIGYGYWLFRGKTKPVPEFPPR
protein production: failed

MLIDKKTQAGVKSIIGWQHCAHFYRQNKLLGLFTKIKRPTKGQRMEEELKQQFDEMGVEPADAVLGRCAELAITYNIHDATEFVEQWMAFSLSHLQGEDPAIENLGDFERKVLQLRKDKAGYKATGQKAKSYGSPSVQDTSSLATYGVMEDDPMLDDYVSESAVDSSALHTPKAKKQSDRTANLKGAALFSPASYTPQSAKRKAGLETPSNSVAGKPGDIVDTFGHPKLLAGSSWQSQMEHTVPVTQKLLHNDAPLTIANLGYMNDLLTDRCHNLRVRFNQTGPALVDKKLGQAGAAECIWYPQDRQVLQSAGGLHAVGMIHSEDDGPLDAHSAFMAVLDDDVEDEMDPTLTLNFSRVKSASIFPGQVVLAKGFIPRGKTFMVEEIHTERKLTPATPLQIDRELQFVVASGPFTDSTDLFYEPLHDLLKYLKDHRPDVLVLTGPFLDADHKMVGELAETFDTFFEKMIGGIMESIGSHTAVLVVTSQKDAMALSVYPTPPPALRRTYPNLYMLPDPSLVDLDGFTLGVTSTDVVDHLLSHEFAVNAGERMHRAINHLFHQGSFYPLYPPADEDMAYDSQLALKYAQLKQLPNVLILPSDQRHFIRLVNDCLVINPGRVADKKGGTFARFLVAPSVPGKAANMFNSVACQVQRI
protein production: failed

MQFIYSIIGILLVLGIVYAISFNRKSVSLSLIGKALIVQFIIALILVRIPLGQQVVSVVSTGVTKVINCGQAGLNFVFGSLADSGAKTGFIFAIQTLGNIVFLSALVSLLYYVGILGFVVKWIGKGVGKIMKSSEVESFVAVANMFLGQTDSPILVSKYLGRMTDSEIMVVLVSGMGSMSVSILGGYIALGIPMEYLLIASTMVPIGSILIAKILLPQTEPVQKIDDIKMDNKGNNANVIDAIAEGASTGAQMAFSIGASLIAFVGLVSLINMMLSGLGIRLEQIFSYVFAPFGFLMGFDHKNILLEGNLLGSKLILNEFVSFQQLGDLIKSLDYRTALVATISLCGFANLSSLGICVSGIAVLCPEKRGTLARLVFRAMIGGIAVSMLSAFIVGIVTLF
protein production: failed

MKKISIEERPDWRATAEREGFNFHTIDGERYWDERGYYLFTEQQITRDLEAPTQALHQMCMDAVARVVDSEELLHQLAIPPAFFDVIQTSWKQGHPHLYARFDFAYDGTGPAKMYEINADTPTSLMEAGAFQLLWLEEQMARGVLPAHASQFNSIAEDLVRAFAEFPGASPFYFAAMSGSVEDRVTTDFLRRMAAHVGIDARHIDIEDIGLNDQGRFVDLDGRWIERLFKLHAWEHIFHEAFGKNVTASGTQFVEPAWKAILSNKGILPLLWQFNEGHPNLLPSRVDQDVTKPVPKGWVRKPYFSREGANIEMRTPGDQVIAVDGPYTDAPYILQAYSPLPKFGDSYTLIGSWVIGDLASGIGIREDDSLITKDTSRFLPHVVID
protein production: failed

SSFQGPLDATVVVNLQSPTLEEKNEFPEDLRTELMQTLGSYGTIVLVRINQGQMLVTFADSHSALSVLDVDGMKVKGRAVKI
protein production: not failed

PDTIIAVDRDHRIIYVNRAMPGHKKTLAVGDHLCDHIMQPYHDRYHHTIERVIVTGKTAVLECELVVSPEETIELESRFAPCFLNGEVTSVVMLSVDITERKGMELELKKTLIDLERFNRVMVGRELRNIELKKRIASLQNDLVLSSGNAQASDDSRQDFATEDEDCAGIHHGDGFEEACDEVQYRKQQRMALLNLIEDANLARNELLETNRKLEESVIRTQEMARAASKANEAKSQFLANMSHEVRTPMNGVIGMSDLLLDTS
protein production: failed

MKNLYILIFACLAISAQGQQLLNSDFENWTNHPGSGGYSSYDEADNWASGNAAVNIAPGLTPPTTKTTDAQHGNAAVKLTTQSIFGQIAAGNLFTGKFQLNLSNPVKSVQMGIPYVSRPSAFNVYYKYAPVNGDSCAIYVLLTKYNTSTKKTDTIGRGHFSSTANVSVYTLLHIPVTYTSTAAPDSIAMVFTSSADGGNFRGQVGSSLTVDNFSLEFEELSIATSLAAVSAVLYPNPAQSRVALSNAPSESGTVYFYNVAGKLVSSQKWTGTVSPEFALDNMPAGFYTCKFITSDTAVFSGKLLITE
protein production: failed

MQIGPGSATRLEFRRHFAATPEQLWAALTSPALLPAWLFARGWPMTECVFEPHKGGLIRQVWTGPEGRTRGLTGRVILAEPPHRLIHSELYDEDWTGGETLVTLQLLPVEGGTELAMAVDYATPEARDAVAASAMATEMEEAYRHLDVMLAALEHHHHHH
protein production: not failed

QTLLQANPDPVLVADAETGKIVEANAAATGLLGRPREEIIGAHQTDLHPSGRAEAYASLFRRSLDEDGPMRALPDGTQIEVVTDEGTTVPVEVNATTVDLPDGRVVYGVFRDVSE
protein production: failed

MSAIDCIITAAGLSSRMGQWKMMLPWQQGTILDTSIKNALQFCSRIILVTGYRGNELHERYVNQSNITIIHNPDYAQGLLTSVKAAVPAVQTEHCFLTHGDMPTLTIDIFRKIWSLRNDGAILPLHNGIPGHPILVSKPCLMQAIKRPNITNMRQALLMGAHYSVEVENAEIILDIDTPDDFITVQKRYTKI
protein production: failed

NIESIENLQGIRALQQQAPQLLSSGLPNEQQFSLLKQAGVDVVINLMPDSSKDAHPDEGKLVTQAGMDYVYIPVDWQNPKVEDVEAFFAAMDQHKGKDVLVHCLANYRASAFAYLYQLKQGQNPNMAQTMTPWNDELAIYPKWQALLTEVSAKYGH
protein production: not failed

MSKQSVKKIISFSLTIIIAIVMLGLLKNLFSQSDDKALSEAIRNGAFLVDVRTPGEFASGSVAGAVNIPLDRIASRLNELKNKKTIIVFCRSGNRSSQAKSILERNGFSNVLDGGTWGHVASLKGDQ
protein production: failed

QGYQVTKLYVMDRDGTNARLLTEGFDRDVQNPTFTADGEHIVFRYVDEGSTKIGRVALDGGRRVVAEHVGGTSIGRPYTSGSFSLASNGRVAFTHATPQRPADVAVAQAGREAQVLTALNDDLFGQVDLGSVEQITYESSHDGRTIEGWIVTPPGFDASQEYPLVLEIHGGPFASYGPYFSAEVQLYAAAGYVVLYTNPRGSTSYGQDFGNAIHHDYPGHDYDDLMSGVDAVLERGYVDADRLYVTGGSGGGVLTSWIVGHTDRFRAAVAAKPVINWYSWALTADMYPYGVKYWFPGLPWNHEEHYMDRSPLSYVDNVTTPTMLLTGANDYRTPMSESEQFYQALKLREVETALVRVPGASHSIAARPSHLAAKAAHVLEWFRRHGGPTPEQ
protein production: failed
